# From patent US20220098591, “STEM-LOOP COMPOSITIONS AND METHODS FOR INHIBITING VASCULAR ENDOTHELIAL GROWTN FACTOR” (DRIVE THERAPEUTICS LLC, published 2022)
# Molecular target: VEGF-A121 (Homo sapiens, UniProt P15692 SEQ:1-121)
# Assay: competition; TR-FRET
# Settings: tags: glycan-biotinylated for SPR/FRET/AlphaLISA; Acro BioSystems, Biolegend; chain copies: 2 (stated)
# Protocol: Briefly, for competition TR-FRET, 2-fold dilutions of thermally equilibrated aptamers were made in TR-FRET Buffer (50 mM MOPS, pH 7.4, 125 mM NaCl, 5 mM KCl, 50 μM CHAPS, 0.1 mg/mL BSA, 1 mM CaCl₂, and 1 mM MgCl₂). 5 μL of aptamer or control solution was added to a 15 μL mix of glycan biotinylated […] (5 nM final), ALEXA FLUOR® 647-labeled Aptamer (30 nM final), and Streptavidin-Eu (Perkin Elmer; 2.5 nM final) in a black wall low volume 384 well plate (Greiner). For control, 5 μl of 1000-fold excess of unlabeled parent aptamer or 5 μl TR-FRET buffer alone was added to the mix of ALEXA FLUOR® 647-labeled aptamer, biotin-VEGF-A, and Streptavidin-Eu. The plate was covered with a plate seal and subsequently incubated in the dark for 1 hour at room temperature. The plate was read on a Biotek CYTATION™ 5 plate reader. Samples were excited at 330 nm and fluorescent values were collected at 665 nm. Data analysis was performed by subtracting the background value and plotting as percent inhibition, normalized to baseline in the absence of competitor. The values were fit by [Inhibitor] vs. response-Variable slope (four parameters) using GraphPad Prism Version 7.0 and then normalized to aptamer control to obtain an IC₅₀ relative to parent aptamer. Data is presented as log values of relative IC₅₀.
# Activity of each of these variants were tested using a time resolved competition TR-FRET assay, as described in Example 7, in which a labeled parent was competed with increasing concentrations of unlabeled variants for binding to VEGF-A₁₂₁.
# Sequence of VEGF-A121 (P15692 other isoform, or with tags, fused parts or gaps): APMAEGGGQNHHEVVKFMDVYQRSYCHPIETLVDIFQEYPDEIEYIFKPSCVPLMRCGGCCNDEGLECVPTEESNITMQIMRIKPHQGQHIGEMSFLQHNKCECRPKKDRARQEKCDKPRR
Binder,binding signal,binding result
"AGGCCGCCUCCGCGCGGAGGGGUUCAUUUCCCGUUUGGCGGCUU (ssRNA, all G 2'-F; A,C,U 2'-OMe; 5' C6NH2; 3' idT) [Aptamer 108]",> 100 fold worse IC50 vs Aptamer 26,–
"AGGCCGCCUCCGCGCGGAGGUCUUUCAUUAGACCGUUUGGCGGCUU (ssRNA, all G 2'-F; A,C,U 2'-OMe; 5' C6NH2; 3' idT) [Aptamer 129]",> 100 fold worse IC50 vs Aptamer 26,–
"AGGCCGCAUCCGCGCGGAGGGGUUUCAUUAUCCCGUUUUGCGGCUU (ssRNA, all G 2'-F; A,C,U 2'-OMe; 5' C6NH2; 3' idT) [Aptamer 122]",–,binds
"AGGCCGCCUCCGCACGGAGGGGUUUCAUUAUCCCGUUUGGCGGCUU (ssRNA, all G 2'-F; A,C,U 2'-OMe; 5' C6NH2; 3' idT) [Aptamer 155]",> 100 fold worse IC50 vs Aptamer 26,–
"AGGCCGCCUCCCCGCGGAGGGGUUUCAUUAUCCCGUUUGGCGGCUU (ssRNA, all G 2'-F; A,C,U 2'-OMe; 5' C6NH2; 3' idT) [Aptamer 150]",> 100 fold worse IC50 vs Aptamer 26,–
"AGGCCGCCACCGCGCGGAGGGGUUUCAUUAUCCCGUUUGGCGGCUU (ssRNA, all G 2'-F; A,C,U 2'-OMe; 5' C6NH2; 3' idT) [Aptamer 146]",~3 fold better IC50 vs Aptamer 26,–
"AGGCCGCCUCCGCGCGGAAGGGUUUCAUUAUCCUGUUUGGCGGCUU (ssRNA, all G 2'-F; A,C,U 2'-OMe; 5' C6NH2; 3' idT) [Aptamer 112]",> 100 fold worse IC50 vs Aptamer 26,–
"AGGCCGUCUCCGCGCGGAGGGGUUUCAUUAUCCCGUUUGACGGCUU (ssRNA, all G 2'-F; A,C,U 2'-OMe; 5' C6NH2; 3' idT) [Aptamer 126]",–,binds
"AGGCCGCCUCCGCGCGGAGUGGUUUCAUUAUCACGUUUGGCGGCUU (ssRNA, all G 2'-F; A,C,U 2'-OMe; 5' C6NH2; 3' idT) [Aptamer 116]",> 100 fold worse IC50 vs Aptamer 26,–
"AGGCCGACUCCGCGCGGAGGGGUUUCAUUAUCCCGUUUGUCGGCUU (ssRNA, all G 2'-F; A,C,U 2'-OMe; 5' C6NH2; 3' idT) [Aptamer 125]",–,binds
"AGGCCGCCUCCACGCGGAGGGGUUUCAUUAUCCCGUUUGGCGGCUU (ssRNA, all G 2'-F; A,C,U 2'-OMe; 5' C6NH2; 3' idT) [Aptamer 149]",> 100 fold worse IC50 vs Aptamer 26,–
"AGGCCGCCUCCGCGCGGAGGUGUUUCAUUACACCGUUUGGCGGCUU (ssRNA, all G 2'-F; A,C,U 2'-OMe; 5' C6NH2; 3' idT) [Aptamer 130]",> 100 fold worse IC50 vs Aptamer 26,–
"AGGCCGCCUCCGCGCGGAGGGCUUUCAUUAGCCCGUUUGGCGGCUU (ssRNA, all G 2'-F; A,C,U 2'-OMe; 5' C6NH2; 3' idT) [Aptamer 127]",> 100 fold worse IC50 vs Aptamer 26,–
"AGGCCGCCGCCGCGCGGAGGGGUUUCAUUAUCCCGUUUGGCGGCUU (ssRNA, all G 2'-F; A,C,U 2'-OMe; 5' C6NH2; 3' idT) [Aptamer 148]",–,binds
"AGGCCGCCUCCGCGCGGAGCGGUUUCAUUAUCGCGUUUGGCGGCUU (ssRNA, all G 2'-F; A,C,U 2'-OMe; 5' C6NH2; 3' idT) [Aptamer 117]",> 100 fold worse IC50 vs Aptamer 26,–
"AGGCCGCUUCCGCGCGGAGGGGUUUCAUUAUCCCGUUUAGCGGCUU (ssRNA, all G 2'-F; A,C,U 2'-OMe; 5' C6NH2; 3' idT) [Aptamer 123]",–,binds
"AGGCCGCCUCCGCGCGGACGGGUUUCAUUAUCCGGUUUGGCGGCUU (ssRNA, all G 2'-F; A,C,U 2'-OMe; 5' C6NH2; 3' idT) [Aptamer 114]",> 100 fold worse IC50 vs Aptamer 26,–
"AGGCCGCCUCCGCGCGGAGGAGUUUCAUUACUCCGUUUGGCGGCUU (ssRNA, all G 2'-F; A,C,U 2'-OMe; 5' C6NH2; 3' idT) [Aptamer 131]",> 100 fold worse IC50 vs Aptamer 26,–
"AGGCCGCCUCCGCGCGGAUGGGUUUCAUUAUCCAGUUUGGCGGCUU (ssRNA, all G 2'-F; A,C,U 2'-OMe; 5' C6NH2; 3' idT) [Aptamer 113]",> 100 fold worse IC50 vs Aptamer 26,–
"AGGCCGCCUCAGCGCUGAGGGGUUUCAUUAUCCCGUUUGGCGGCUU (ssRNA, all G 2'-F; A,C,U 2'-OMe; 5' C6NH2; 3' idT) [Aptamer 178]",–,binds
"AGGCCGCCUCCGCGCGGAGGCGUUUCAUUACGCCGUUUGGCGGCUU (ssRNA, all G 2'-F; A,C,U 2'-OMe; 5' C6NH2; 3' idT) [Aptamer 132]",> 100 fold worse IC50 vs Aptamer 26,–
